Molecular target: SARS-CoV-2 Spike protein (D614G, furin-cleavage site destroyed, FKO) on SARS-CoV-2 virus-like particles (VLPs) (SARS-CoV-2, UniProt P0DTC2 14-1273)

B1: hcAb A7.2 (clone A7_2), camelid full length IgG2 heavy chain only antibody (antibody, V domains shown)
VH: DVQLQESGGGLVQPGKSLKLSCAAFGFAFSSTWMHWVRQAPGKGPEWVAFINPGGEKTMHADSVKGRFTISRDDAKNTLYLQMNNLKPEDTAVYYCAIERKDAFSWGQGTQVTVSS
EC50 (read off the curve): ~400 mg/L

— US20250271431A1 (NEW ERA MABS, published 2025)
